Results taken from patent US20060272037A1 (JULIUS MAXIMILIANS UNIVERSITAT, published 2006).

How the values were obtained:
[1] = target: T1, PTH receptor-cam8 "chameleon" (human); experiment: competition ligand binding, receptor stably expressed in HEK293 cells
T1 construct: Stably expressed in HEK293 cells; also tested in membranes made from these cells; also called PTHR-cam; PTHR-cam8

[2] = target: T1, PTH receptor-cam8 "chameleon"; experiment: cell-based or functional assay

T1 sequence (chain, as listed by the source limits assumed): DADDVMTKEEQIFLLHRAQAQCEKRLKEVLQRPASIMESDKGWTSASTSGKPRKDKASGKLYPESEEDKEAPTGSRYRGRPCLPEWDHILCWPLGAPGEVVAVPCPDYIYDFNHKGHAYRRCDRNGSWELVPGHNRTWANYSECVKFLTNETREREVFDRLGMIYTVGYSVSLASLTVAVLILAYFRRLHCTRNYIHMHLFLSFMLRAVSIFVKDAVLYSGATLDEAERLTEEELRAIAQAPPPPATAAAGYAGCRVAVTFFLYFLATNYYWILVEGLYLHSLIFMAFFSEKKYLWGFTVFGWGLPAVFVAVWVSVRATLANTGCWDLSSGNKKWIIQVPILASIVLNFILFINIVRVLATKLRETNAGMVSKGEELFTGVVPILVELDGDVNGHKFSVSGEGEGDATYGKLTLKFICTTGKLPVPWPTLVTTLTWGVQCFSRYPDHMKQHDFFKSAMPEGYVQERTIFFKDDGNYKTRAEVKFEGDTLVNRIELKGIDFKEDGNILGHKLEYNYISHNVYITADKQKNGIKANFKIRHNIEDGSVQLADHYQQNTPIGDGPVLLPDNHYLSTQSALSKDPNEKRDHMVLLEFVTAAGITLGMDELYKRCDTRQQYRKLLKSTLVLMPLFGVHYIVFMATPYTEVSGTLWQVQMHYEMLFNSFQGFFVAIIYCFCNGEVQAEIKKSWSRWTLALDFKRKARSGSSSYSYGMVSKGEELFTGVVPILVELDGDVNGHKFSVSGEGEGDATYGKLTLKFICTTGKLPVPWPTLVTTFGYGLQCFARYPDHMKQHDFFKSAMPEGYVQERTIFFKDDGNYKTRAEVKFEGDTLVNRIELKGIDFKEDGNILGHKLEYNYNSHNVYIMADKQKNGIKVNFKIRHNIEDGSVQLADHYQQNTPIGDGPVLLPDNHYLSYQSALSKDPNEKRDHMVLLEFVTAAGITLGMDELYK

**Q.** SVSEIQLMHNLGKHLNSMERVEWLRKKLQDVHNF (peptide, UniProt P01270 32-65, looked up) [parathyroid hormone (PTH)] was tested. Which Ki [1] did it give?
**A.** Its Ki is 15.5 nM.

**Q.** What about the “EC50 of signalling to adenylyl cyclase” value [2] of the same binder?
**A.** Its value is 12.8 nM.
